# Source: patent US20150307603A1 (MODIQUEST B V, published 2015)
# Non-standard residues stand in square brackets, D forms with d. No end group written: not given here. Cit = NC(=O)NCCC[C@H](N)C(=O)O
# T1: peptide no. 5 (human histone 2A) (human, also: biotin-labelled)
# T1 construct: also called peptide 5
# T1 peptide: VGRVH[Cit]LLRKGN
# T2: peptide no. 6 (human histone 2A) (human, also: biotin-labelled)
# T2 construct: also called peptide 6
# T2 peptide: VHRLL[Cit]KGNYSE
# T3: peptide no. 8 (human histone 2A) (human, also: biotin-labelled)
# T3 construct: also called peptide 8
# T3 peptide: AGNAA[Cit]DNKKTR
# T4: peptide no. 2 (human histone 2A) (human, also: biotin-labelled)
# T4 construct: also called peptide 2
# T4 peptide: AKAKS[Cit]SSRAGL
# B1: RhmAb2.102 (antibody, human IgG1, lambda)
# heavy: not shown
# light: QSVLTQPPSMSAAPGQKVTISCSGSSSNIGNNYVSWYQQVPGTAPKLLIYDDNKRPSGIPGRFSGSKSATSATLGITGLQAGDEADYYCGSWDDNLSVVLFGGGTKLTVLGQPKAAPSVTLFPPSSEELQANKATLVCLISDFYPGAVTVAWKADSSPVKAGVETTTPSKQSNNKYAASSYLSLTPEQWKSHRSYSCQVTHEGSTVEKTVAPTECS
# notes: Human IgG1 lambda; also called Rhm2.102
# How the values were obtained:
# [1] = molecular target: T5, huPAD2-deiminated human recombinant histone 2B (human); assay: ELISA, Ab 0.016 ug/well
# T5 construct: also called H2B/p2
# Text: (§1) The resulting OD (y-axis) is a measure for antibody binding. H1-recombinant histone 1; H1/p2-huPAD2 recombinant histone 1; H1/p4-huPAD4 recombinant histone 1, and so forth (x-axis).
# [2] = molecular target: T6, huPAD2-deiminated human recombinant histone 3 (human); assay: ELISA, Ab 0.016 ug/well
# T6 construct: also called H3/p2; histone 3/p2
# Text: as §1
# [3] = molecular target: T7, huPAD2-deiminated human recombinant histone 2A (human); assay: ELISA, Ab 0.016 ug/well
# T7 construct: also called H2A/p2; histone 2A/p2
# Text: as §1
# [4] = molecular target: T8, huPAD4-deiminated human recombinant histone 2B (human); assay: ELISA, Ab 0.016 ug/well
# T8 construct: also called H2B/p4
# Text: as §1
# [5] = molecular target: T9, human recombinant histone 4 (human, UniProt P62805 2-103); assay: ELISA, Ab 0.016 ug/well
# Text: as §1
# [6] = molecular target: T10, huPAD4-deiminated human recombinant histone 2A (human); assay: ELISA, Ab 0.016 ug/well
# T10 construct: also called H2A/p4; histone 2A/p4
# Text: as §1
# CFC-1 [7] = molecular target: T11, CFC-1; assay: ELISA, Ab 0.016 ug/well
# T11 construct: Positive control for anti-citrulline reactivity; also called cfc1 XG; Cfc1-peptide
# Text: as §1
# [8] = molecular target: T12, human recombinant histone 2B (human); assay: ELISA, Ab 0.016 ug/well
# T12 construct: Non-deiminated; also called H2B
# Text: as §1
# [9] = molecular target: T13, human recombinant histone 2A (human); assay: ELISA, Ab 0.016 ug/well
# T13 construct: Non-deiminated; also called H2A
# Text: as §1
# [10] = molecular target: T14, huPAD4-deiminated human recombinant histone 3 (human); assay: ELISA, Ab 0.016 ug/well
# T14 construct: also called H3/p4
# Text: as §1
# [11] = molecular target: T5, huPAD2-deiminated human recombinant …; assay: ELISA, Ab 0.4 ug/well
# Text: as §1
# [12] = molecular target: T6, huPAD2-deiminated human recombinant …; assay: ELISA, Ab 0.4 ug/well
# Text: as §1
# [13] = molecular target: T7, huPAD2-deiminated human recombinant …; assay: ELISA, Ab 0.4 ug/well
# Text: as §1
# [14] = molecular target: T8, huPAD4-deiminated human recombinant …; assay: ELISA, Ab 0.4 ug/well
# Text: as §1
# [15] = molecular target: T9, human recombinant histone 4; assay: ELISA, Ab 0.4 ug/well
# Text: as §1
# [16] = molecular target: T10, huPAD4-deiminated human recombinant …; assay: ELISA, Ab 0.4 ug/well
# Text: as §1
# [17] = molecular target: T15, human recombinant histone 3 (human); assay: ELISA, Ab 0.4 ug/well
# T15 construct: Non-deiminated; also called H3
# Text: as §1
# CFC-1 [18] = molecular target: T11, CFC-1; assay: ELISA, Ab 0.4 ug/well
# Text: as §1
# [19] = molecular target: T13, human recombinant histone 2A; assay: ELISA, Ab 0.4 ug/well
# Text: as §1
# [20] = molecular target: T14, huPAD4-deiminated human recombinant …; assay: ELISA, Ab 0.4 ug/well
# Text: as §1
# [21] = molecular target: T1, peptide no. 5 (human histone 2A); assay: ELISA, Ab 0.000128 ug/well
# Protocol: (§2) Biotin and citrulline-containing peptides derived from histone 2A were immobilized on NEUTRAVIDIN®-coated 96-well ELISA plates (0.3 μg/well). CFC-1 and CFC-0 were coated at the same concentration and served as positive and negative controls, respectively, for specific anti-citrulline reactivity and as coating controls. Non-coated wells were used to test for aspecific binding of the antibodies. […] Detection of bound anti-citrulline antibodies was performed by incubating the wells with rabbit anti-human HRP (1:2000) for 1 hour at RT followed by incubation with TMB substrate. The resulting OD (y-axis) is a measure for antibody binding.
# [22] = molecular target: T2, peptide no. 6 (human histone 2A); assay: ELISA, Ab 0.000128 ug/well
# Protocol: as §2
# [23] = molecular target: T3, peptide no. 8 (human histone 2A); assay: ELISA, Ab 0.000128 ug/well
# Protocol: as §2
# [24] = molecular target: T4, peptide no. 2 (human histone 2A); assay: ELISA, Ab 0.000128 ug/well
# Protocol: as §2
# [25] = molecular target: T5, huPAD2-deiminated human recombinant …; assay: ELISA, Ab 0.00064 ug/well
# Text: as §1
# [26] = molecular target: T7, huPAD2-deiminated human recombinant …; assay: ELISA, Ab 0.00064 ug/well
# Text: as §1
# [27] = molecular target: T8, huPAD4-deiminated human recombinant …; assay: ELISA, Ab 0.00064 ug/well
# Text: as §1
# [28] = molecular target: T9, human recombinant histone 4; assay: ELISA, Ab 0.00064 ug/well
# Text: as §1
# [29] = molecular target: T10, huPAD4-deiminated human recombinant …; assay: ELISA, Ab 0.00064 ug/well
# Text: as §1
# CFC-1 [30] = molecular target: T11, CFC-1; assay: ELISA, Ab 0.00064 ug/well
# Text: as §1
# [31] = molecular target: T12, human recombinant histone 2B; assay: ELISA, Ab 0.00064 ug/well
# Text: as §1
# [32] = molecular target: T13, human recombinant histone 2A; assay: ELISA, Ab 0.00064 ug/well
# Text: as §1
binder,measurement,setting,value
B1,OD,[1],0.052 OD450
same,OD,[2],0.155 OD450
same,OD,[3],0.628 OD450
same,OD,[4],0.052 OD450
same,OD,[5],0.061 OD450
same,OD,[6],0.426 OD450
same,OD,CFC-1 [7],0.702 OD450
same,OD,[8],0.065 OD450
same,OD,[9],0.057 OD450
same,OD,[10],0.076 OD450
same,OD,[11],0.06 OD450
same,OD,[12],1.18 OD450
same,OD,[13],3.08 OD450
same,OD,[14],0.054 OD450
same,OD,[15],0.091 OD450
same,OD,[16],2.72 OD450
same,OD,[17],0.08 OD450
same,OD,CFC-1 [18],3.12 OD450
same,OD,[19],0.071 OD450
same,OD,[20],0.166 OD450
same,OD,[21],0.059 OD450
same,OD,[22],0.054 OD450
same,OD,[23],0.055 OD450
same,OD,[24],0.075 OD450
same,OD,[25],0.052 OD450
same,OD,[26],0.077 OD450
same,OD,[27],0.055 OD450
same,OD,[28],0.06 OD450
same,OD,[29],0.075 OD450
same,OD,CFC-1 [30],0.077 OD450
same,OD,[31],0.052 OD450
same,OD,[32],0.057 OD450
